Substitutions are numbered along the chain they refer to.
T1: PF3D7_0420300 D1 (Plasmodium falciparum, UniProt Q8I1N6 1956-2015)
T1 sequence: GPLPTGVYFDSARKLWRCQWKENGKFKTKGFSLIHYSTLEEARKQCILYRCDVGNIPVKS

B1: CACACA_negctrl_site637 (dsDNA)
DNA 1: GTGTAAAGGTATTATTGTATTATTCAAAATAAAAAA
DNA 2: TTTTTTATTTTGAATAATACAATAATACCTTTACAC
B2: CACACA_negctrl_site583 (dsDNA)
DNA 1: AAAAAAAAAAAAAAAAAAAAAAAAATATATAATTTA
DNA 2: TAAATTATATATTTTTTTTTTTTTTTTTTTTTTTTT
B3: CACACA_negctrl_site1645 (dsDNA)
DNA 1: TATTTTAGAGAAAAAAATAAATTACAAAATGTTAGG
DNA 2: CCTAACATTTTGTAATTTATTTTTTTCTCTAAAATA
B4: CACACA_negctrl_site1015 (dsDNA)
DNA 1: TATAAATAAAGACTTTTTTCTAACTTTTTTTTGTAT
DNA 2: ATACAAAAAAAAGTTAGAAAAAAGTCTTTATTTATA
B5: CACACA_negctrl_site62 (dsDNA)
DNA 1: TATATGTTAATTTTTTTTTTTTTTTTTTTTTTTATA
DNA 2: TATAAAAAAAAAAAAAAAAAAAAAAATTAACATATA
B6: CACACA_negctrl_site730 (dsDNA)
DNA 1: AGATGATATATTATATATCCTTTTAATAAATGTAAT
DNA 2: ATTACATTTATTAAAAGGATATATAATATATCATCT
B7: CACACA_negctrl_site1765 (dsDNA)
DNA 1: TACTTTATATTATATATATATATATATATATATATA
DNA 2: TATATATATATATATATATATATATAATATAAAGTA
B8: CACACA_negctrl_site515 (dsDNA)
DNA 1: GACTCATTAAGGATTATTCCTAATGATCAAAAGAAC
DNA 2: GTTCTTTTGATCATTAGGAATAATCCTTAATGAGTC
B9: CACACA_negctrl_site1603 (dsDNA)
DNA 1: TGATTTATCTATATTTTATAAGTTATTTATTTTTTT
DNA 2: AAAAAAATAAATAACTTATAAAATATAGATAAATCA
B10: CACACA_negctrl_site1574 (dsDNA)
DNA 1: TTTTTTAAAAGAAAATAAAAAATAAGCATAATATGA
DNA 2: TCATATTATGCTTATTTTTTATTTTCTTTTAAAAAA
B11: CACACA_negctrl_site620 (dsDNA)
DNA 1: TTTTTTTACTTAATAGTTCAACATATATCTCAATGT
DNA 2: ACATTGAGATATATGTTGAACTATTAAGTAAAAAAA
B12: CACACA_negctrl_site825 (dsDNA)
DNA 1: TAAGTTCACAAAAAAAAAAAAAAATAAAGAAATAAA
DNA 2: TTTATTTCTTTATTTTTTTTTTTTTTTGTGAACTTA
B13: CACACA_negctrl_site786 (dsDNA)
DNA 1: AATAATAAATATATATATATATATATATATATATTT
DNA 2: AAATATATATATATATATATATATATATTTATTATT
B14: CACACA_negctrl_site1241 (dsDNA)
DNA 1: ATTTTTTTTTTTTTTTTTTTTTTGTTTATACAAAAT
DNA 2: ATTTTGTATAAACAAAAAAAAAAAAAAAAAAAAAAT
B15: CACACA_negctrl_site1423 (dsDNA)
DNA 1: TTTTTATAACTATATTATATAACTTTTGTACGAACT
DNA 2: AGTTCGTACAAAAGTTATATAATATAGTTATAAAAA
B16: CACACA_negctrl_site793 (dsDNA)
DNA 1: TCCTATAATTTTTTAATCAAAATATTTTATCCTTTG
DNA 2: CAAAGGATAAAATATTTTGATTAAAAAATTATAGGA
B17: CACACA_negctrl_site1558 (dsDNA)
DNA 1: TCTTAAATATATAAATTGAAAAATATAAAAGTAATA
DNA 2: TATTACTTTTATATTTTTCAATTTATATATTTAAGA
B18: CACACA_negctrl_site173 (dsDNA)
DNA 1: TTTTATATATATATATATATATATATATATGTATAT
DNA 2: ATATACATATATATATATATATATATATATATAAAA
B19: CACACA_site6208 (dsDNA)
DNA 1: ATATAAATATGACACACACACAAAAAAAATAAAGAC
DNA 2: GTCTTTATTTTTTTTGTGTGTGTGTCATATTTATAT
B20: CACACA_site117 (dsDNA)
DNA 1: B19 DNA 1 with A6T, T10A, G11A
DNA 2: B19 DNA 2 with C26T, A27T, T31A
B21: CACACA_negctrl_site214 (dsDNA)
DNA 1: TTTTTATTTTTATACATATAATATATTATGATTAAA
DNA 2: TTTAATCATAATATATTATATGTATAAAAATAAAAA
B22: CACACA_negctrl_site1134 (dsDNA)
DNA 1: GTTTGATAACACCTACAAACTCTTTTTTTTTTTTTT
DNA 2: AAAAAAAAAAAAAAGAGTTTGTAGGTGTTATCAAAC
B23: CACACA_negctrl_site329 (dsDNA)
DNA 1: TTTAATTTATATAATGATATTAAGTTGGTTATTAGG
DNA 2: CCTAATAACCAACTTAATATCATTATATAAATTAAA
B24: CACACA_negctrl_site1084 (dsDNA)
DNA 1: TTTTATTGATTATTCATAAATATGCTATTCATCTAA
DNA 2: TTAGATGAATAGCATATTTATGAATAATCAATAAAA
B25: CACACA_negctrl_site77 (dsDNA)
DNA 1: TCTTTATATCATCTTTCTAAATATATATATATATAA
DNA 2: TTATATATATATATATTTAGAAAGATGATATAAAGA
B26: CACACA_negctrl_site491 (dsDNA)
DNA 1: ATTTAATATCACAATATATTTTTTACCCTTATCAGC
DNA 2: GCTGATAAGGGTAAAAAATATATTGTGATATTAAAT
B27: CACACA_negctrl_site674 (dsDNA)
DNA 1: TAAAATGATAAATGAATGTGATCATTTTATAAAATA
DNA 2: TATTTTATAAAATGATCACATTCATTTATCATTTTA
B28: CACACA_negctrl_site116 (dsDNA)
DNA 1: ATTGGAAAATATGTTATATATATATATATATATATG
DNA 2: CATATATATATATATATATATAACATATTTTCCAAT
B29: CACACA_site8094 (dsDNA)
DNA 1: AAAAAAATTTGGCATACACACACACCCCCACCCACA
DNA 2: TGTGGGTGGGGGTGTGTGTGTATGCCAAATTTTTTT
B30: CACACA_negctrl_site610 (dsDNA)
DNA 1: ATTATAAGAATTAAAAGAAACAAAATTTTAATTATA
DNA 2: TATAATTAAAATTTTGTTTCTTTTAATTCTTATAAT
B31: CACACA_negctrl_site1491 (dsDNA)
DNA 1: GTAGCCTTTCTTTATAAAGGCAAACAAACAAAAAAT
DNA 2: ATTTTTTGTTTGTTTGCCTTTATAAAGAAAGGCTAC
B32: CACACA_negctrl_site1083 (dsDNA)
DNA 1: ATGAAAAAAAAAAAAAAAAAAAAAAAAAAAAAAATA
DNA 2: TATTTTTTTTTTTTTTTTTTTTTTTTTTTTTTTCAT
B33: CACACA_negctrl_site1391 (dsDNA)
DNA 1: ATTTTTTTTTTTTTTTTTTTTTTTTTTTGATTTGTG
DNA 2: CACAAATCAAAAAAAAAAAAAAAAAAAAAAAAAAAT
B34: CACACA_negctrl_site1620 (dsDNA)
DNA 1: ATCTAAATAATATATATATATAATATTAATAATATA
DNA 2: TATATTATTAATATTATATATATATATTATTTAGAT
B35: CACACA_negctrl_site237 (dsDNA)
DNA 1: ATTCTATTTTTTATAAAACCATGTCATCAACATAGG
DNA 2: CCTATGTTGATGACATGGTTTTATAAAAAATAGAAT
B36: CACACA_negctrl_site905 (dsDNA)
DNA 1: TATAATAATAATAATAATAATAATAATAATAATAAT
DNA 2: ATTATTATTATTATTATTATTATTATTATTATTATA
B37: CACACA_negctrl_site129 (dsDNA)
DNA 1: AAGCATTTTTTTTAAAGCCTGTTCATCATCCTTACC
DNA 2: GGTAAGGATGATGAACAGGCTTTAAAAAAAATGCTT
B38: CACACA_negctrl_site1311 (dsDNA)
DNA 1: TTACATTTTTGAAATAGATACATACACGTGTATGTA
DNA 2: TACATACACGTGTATGTATCTATTTCAAAAATGTAA
B39: CACACA_negctrl_site810 (dsDNA)
DNA 1: AGAAAGGAGGAAATAAAAGGACTTCTTTTTTTATAT
DNA 2: ATATAAAAAAAGAAGTCCTTTTATTTCCTCCTTTCT
B40: CACACA_negctrl_site1408 (dsDNA)
DNA 1: ATTTATTTTAATTTTTTTTTTTCTCTTTTGGATCTA
DNA 2: TAGATCCAAAAGAGAAAAAAAAAAATTAAAATAAAT
B41: CACACA_negctrl_site251 (dsDNA)
DNA 1: AAGAATGTTATATTATGATGCTGTCTTTTTTTAAGA
DNA 2: TCTTAAAAAAAGACAGCATCATAATATAACATTCTT
B42: CACACA_negctrl_site706 (dsDNA)
DNA 1: TTTCTTATATTATATAAATATATAGATGTTAATGGT
DNA 2: ACCATTAACATCTATATATTTATATAATATAAGAAA
B43: CACACA_negctrl_site1155 (dsDNA)
DNA 1: TAAATGTCTTCAATGAAGTGGAAATGCTGTTATATA
DNA 2: TATATAACAGCATTTCCACTTCATTGAAGACATTTA
B44: CACACA_negctrl_site1407 (dsDNA)
DNA 1: CACATATACAAAAAGAAATGTTTAGTTGAAAATTAA
DNA 2: TTAATTTTCAACTAAACATTTCTTTTTGTATATGTG

Molecular target: T1, PF3D7_0420300 D1
Assay: gcPBM; about 25 ug protein; PBS, 1% milk, 0.2 mg/ml BSA, salmon testes DNA, 0.03% Triton X-100
Details: tags: N-terminal GST (pGEX-4T-1), kept; label: surface-attached array probe

Row | Binder | binding signal
1 | B1 | 9.07 ln median PBM intensity, better of two orientations
2 | B2 | 9.05 ln median PBM intensity, better of two orientations
3 | B3 | 8.98 ln median PBM intensity, better of two orientations
4 | B4 | 9.06 ln median PBM intensity, better of two orientations
5 | B5 | 8.98 ln median PBM intensity, better of two orientations
6 | B6 | 9.03 ln median PBM intensity, better of two orientations
7 | B7 | 9 ln median PBM intensity, better of two orientations
8 | B8 | 9 ln median PBM intensity, better of two orientations
9 | B9 | 9.05 ln median PBM intensity, better of two orientations
10 | B10 | 8.99 ln median PBM intensity, better of two orientations
11 | B11 | 9.02 ln median PBM intensity, better of two orientations
12 | B12 | 8.98 ln median PBM intensity, better of two orientations
13 | B13 | 9 ln median PBM intensity, better of two orientations
14 | B14 | 9.04 ln median PBM intensity, better of two orientations
15 | B15 | 9.01 ln median PBM intensity, better of two orientations
16 | B16 | 9.02 ln median PBM intensity, better of two orientations
17 | B17 | 9.06 ln median PBM intensity, better of two orientations
18 | B18 | 9.03 ln median PBM intensity, better of two orientations
19 | B19 | 10.6 ln median PBM intensity, better of two orientations
20 | B20 | 10.6 ln median PBM intensity, better of two orientations
21 | B21 | 8.98 ln median PBM intensity, better of two orientations
22 | B22 | 9.08 ln median PBM intensity, better of two orientations

Row | Binder | binding signal
23 | B23 | 9 ln median PBM intensity, better of two orientations
24 | B24 | 9.01 ln median PBM intensity, better of two orientations
25 | B25 | 9.07 ln median PBM intensity, better of two orientations
26 | B26 | 9.04 ln median PBM intensity, better of two orientations
27 | B27 | 9.01 ln median PBM intensity, better of two orientations
28 | B28 | 9.05 ln median PBM intensity, better of two orientations
29 | B29 | 10.6 ln median PBM intensity, better of two orientations
30 | B30 | 9.07 ln median PBM intensity, better of two orientations
31 | B31 | 9.04 ln median PBM intensity, better of two orientations
32 | B32 | 9.02 ln median PBM intensity, better of two orientations
33 | B33 | 8.99 ln median PBM intensity, better of two orientations
34 | B34 | 8.99 ln median PBM intensity, better of two orientations
35 | B35 | 8.99 ln median PBM intensity, better of two orientations
36 | B36 | 9.03 ln median PBM intensity, better of two orientations
37 | B37 | 9.02 ln median PBM intensity, better of two orientations
38 | B38 | 9.01 ln median PBM intensity, better of two orientations
39 | B39 | 8.99 ln median PBM intensity, better of two orientations
40 | B40 | 9.07 ln median PBM intensity, better of two orientations
41 | B41 | 9.08 ln median PBM intensity, better of two orientations
42 | B42 | 9.08 ln median PBM intensity, better of two orientations
43 | B43 | 8.99 ln median PBM intensity, better of two orientations
44 | B44 | 9.06 ln median PBM intensity, better of two orientations

Reference: publication PMC11417369, “DNA sequence and chromatin differentiate sequence-specific transcription factor binding in the human malaria parasite Plasmodium falciparum”
